Measurements from paper PMC6802930.
Each block holds one substance with its values, some of them ahead of it.

Legend:
[1] = molecular target: ^HAβ3 (rat GABAA receptor β3 subunit with a triple HA tag) (rat) (UniProt P63079)
[2] = molecular target: ^HAβ3 (rat GABAA receptor β3 subunit with a triple HA tag) (rat) (UniProt P63079); remark: listed apart in the source
[3] = molecular target: ^HAβ3/θIC chimera (EC and TM domains from β3, intracellular domain from θ) (rat)
[4] = molecular target: ^HAβ3/θIC chimera (EC and TM domains from β3, intracellular domain from θ) (rat); remark: listed apart in the source
[5] = molecular target: ^HAβ3 (rat GABAA receptor β3 subunit with a triple HA tag) (rat) (UniProt P63079); remark: listed apart in the source
[6] = molecular target: ^HAβ3/θIC chimera (EC and TM domains from β3, intracellular domain from θ) (rat); remark: listed apart in the source

peak whole-cell current evoked by 3 mM histamine, HEK293 cells transfected with ^HAβ3 alone (patch clamp, -80 mV) [1]: 404 pA
Substance: ^HAβ3 (rat GABAA receptor β3 subunit with a triple HA tag) (from UniProt P63079 26-473)

share of the low-affinity component in the bimodal histamine concentration-response curve (10 μM to 10 mM), whole-cell patch clamp, HEK293 cells co-transfected with ^zβ3Q64E and ^HAβ3 (% of the total curve fit) [2]: 85
Substance: ^zβ3Q64E (mutant β3 subunit with higher affinity for histamine) (from UniProt P63079 26-473) (receptor)

Substance: rat GABAA receptor α3 subunit (untagged) (from UniProt P20236 29-493)
anti-HA surface immunofluorescence intensity of non-permeabilized HEK293 cells co-transfected with α3 and ^HAβ3/θIC (the chimera alone is rarely on the surface) [3]: 14 AU
peak whole-cell current evoked by 1 mM GABA, HEK293 cells co-transfected with α3 and ^HAβ3/θIC (patch clamp) [4]: 803 pA
histamine (3 mM) potentiation of the response to 1 mM GABA, whole-cell patch clamp, HEK293 cells co-transfected with α3 and ^HAβ3 [5]: 2.93 fold

anti-HA surface immunofluorescence intensity of non-permeabilized HEK293 cells co-transfected with untagged β3 and ^HAβ3/θIC (the chimera alone is rarely on the surface) [6]: 9.9 AU
Substance: rat GABAA receptor β3 subunit (untagged) (from UniProt P63079 26-473)
